# Changes are numbered by the printed parent chain. Numbers in names are those of the source.
# B1: Fc-iNKG2D.YA (Fc fusion, human, not shown: a dimerising Fc or GST)
# chain: IEGRFLNSLFNQEVQIPLTESYCGPCPKNWICYKNNCYQFFDESKNWYESQASCMSQNASLLKVYSKEDQDLLKLVKSAHWMGLVHIPTNGSWQWEDGSILSPNLLTIIEMQKGDCALYASSFKGYIENCSTPNTYICMQRTV
# notes: range 78-216; also called Y152A mutant
# B2: His-tagged monomeric U2S3 (ligand)
# chain: EPHSLSYDITVIPKFRPGPRWCAVQGQVDEKTFLHYDCGNKTVTPVSPLGKKLNVTTAWKAQNPVLREVVDILTEQLWDIQLENYTPKEPLTLQARMSCEQKAEGHSSGSWQFSFDGQIFLLFDSEKRMWTTVHPGARKMKEKWENDKVVATKLYLWSMGDCIGWLEDFLMGMDSTLEPHHHHHH
# notes: also called orthogonal U2S3 ligand
# B3: Rituximab antibody (ADCC-deficient) (antibody, V domains shown)
# VH: QVQLQQPGAELVKPGASVKMSCKASGYTFTSYNMHWVKQTPGRGLEWIGAIYPGNGDTSYNQKFKGKATLTADKSSSTAYMQLSSLTSEDSAVYYCARSTYYGGDWYFNVWGAGTTVTVSA
# VL: QIVLSQSPAILSASPGEKVTMTCRASSSVSYIHWFQQKPGSSPKPWIYATSNLASGVPVRFSGSGSGTSYSLTISRVEAEDAATYYCQQWTSNPPTFGGGTKLEIK
# notes: also called parent rituximab antibody; Rit.P; not shown: human IgG1 heavy-chain constant region, ADCC-deficient
# B4: Rituximab.LC-U2S3 MicAbody (bispecific antibody, human IgG1, kappa, N297A)
# heavy: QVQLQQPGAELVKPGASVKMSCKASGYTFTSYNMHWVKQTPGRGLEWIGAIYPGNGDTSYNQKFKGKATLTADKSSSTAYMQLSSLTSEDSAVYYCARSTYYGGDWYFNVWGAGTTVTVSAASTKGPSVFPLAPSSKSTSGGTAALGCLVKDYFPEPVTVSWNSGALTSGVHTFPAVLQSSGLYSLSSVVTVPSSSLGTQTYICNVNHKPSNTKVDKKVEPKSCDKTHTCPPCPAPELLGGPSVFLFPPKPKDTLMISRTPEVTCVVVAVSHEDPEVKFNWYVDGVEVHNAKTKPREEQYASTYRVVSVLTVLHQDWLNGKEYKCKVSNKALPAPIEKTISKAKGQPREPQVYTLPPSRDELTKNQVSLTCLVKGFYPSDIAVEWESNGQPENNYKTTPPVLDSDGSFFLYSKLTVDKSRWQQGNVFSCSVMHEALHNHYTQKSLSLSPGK
# light: QIVLSQSPAILSASPGEKVTMTCRASSSVSYIHWFQQKPGSSPKPWIYATSNLASGVPVRFSGSGSGTSYSLTISRVEAEDAATYYCQQWTSNPPTFGGGTKLEIKRTVAAPSVFIFPPSDEQLKSGTASVVCLLNNFYPREAKVQWKVDNALQSGNSQESVTEQDSKDSTYSLSSTLTLSKADYEKHKVYACEVTHQGLSSPVTKSFNRGECAPTSSSGGGGSEPHSLSYDITVIPKFRPGPRWCAVQGQVDEKTFLHYDCGNKTVTPVSPLGKKLNVTTAWKAQNPVLREVVDILTEQLWDIQLENYTPKEPLTLQARMSCEQKAEGHSSGSWQFSFDGQIFLLFDSEKRMWTTVHPGARKMKEKWENDKVVATKLYLWSMGDCIGWLEDFLMGMDSTLEPS
# notes: also called Rit-S3; Rit.S3
# B5: Rituximab light-chain fusion of U2S3 (NQ) (bispecific antibody)
# heavy: QVQLQQPGAELVKPGASVKMSCKASGYTFTSYNMHWVKQTPGRGLEWIGAIYPGNGDTSYNQKFKGKATLTADKSSSTAYMQLSSLTSEDSAVYYCARSTYYGGDWYFNVWGAGTTVTVSAA
# light: B4 light with N264Q, N278Q
# notes: also called Rit.NQ; Rit.S3.NQ; not shown: human IgG1 heavy-chain constant region, ADCC-deficient
# Legend:
# MICA-Fc = molecular target: T1, MICA-Fc (UniProt Q29983 24-308); assay: ELISA; ligand-Fc coated, biotinylated Fc-iNKG2D.YA titrated, streptavidin-HRP; x axis printed as 'nM ligand-Fc'
# T1 construct: Bought reagent; also called Ligand-Fc fusion (R&D Systems); not shown: Fc of the bought fusion, not described
# MICB-Fc = molecular target: T2, MICB-Fc (UniProt Q29980 23-298, limits assumed); assay: as above
# T2 construct: Bought reagent; also called Ligand-Fc fusion (R&D Systems); not shown: Fc of the bought fusion, not described
# T2 sequence (looked up): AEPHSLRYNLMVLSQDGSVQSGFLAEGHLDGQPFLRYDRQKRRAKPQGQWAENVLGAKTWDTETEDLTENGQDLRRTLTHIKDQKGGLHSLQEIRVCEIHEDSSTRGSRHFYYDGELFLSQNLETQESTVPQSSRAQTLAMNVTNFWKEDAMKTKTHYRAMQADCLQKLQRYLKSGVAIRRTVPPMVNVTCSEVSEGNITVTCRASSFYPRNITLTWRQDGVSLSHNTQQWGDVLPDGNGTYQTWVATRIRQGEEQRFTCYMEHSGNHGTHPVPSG
# ULBP1-Fc = molecular target: T3, ULBP1-Fc (UniProt Q9BZM6 26-216); assay: as above
# T3 construct: Bought reagent; also called Ligand-Fc fusion (R&D Systems); not shown: Fc of the bought fusion, not described
# T3 sequence (looked up): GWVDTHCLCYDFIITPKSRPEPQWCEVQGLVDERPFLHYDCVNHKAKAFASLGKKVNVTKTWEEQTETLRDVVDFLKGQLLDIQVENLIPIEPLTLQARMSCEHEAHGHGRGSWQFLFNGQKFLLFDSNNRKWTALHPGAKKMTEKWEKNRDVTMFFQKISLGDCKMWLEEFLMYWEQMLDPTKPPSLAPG
# ULBP2-Fc = molecular target: T4, ULBP2-Fc (UniProt Q9BZM5 26-217); assay: as above
# T4 construct: Bought reagent; also called Ligand-Fc fusion (R&D Systems); not shown: Fc of the bought fusion, not described
# T4 sequence (looked up): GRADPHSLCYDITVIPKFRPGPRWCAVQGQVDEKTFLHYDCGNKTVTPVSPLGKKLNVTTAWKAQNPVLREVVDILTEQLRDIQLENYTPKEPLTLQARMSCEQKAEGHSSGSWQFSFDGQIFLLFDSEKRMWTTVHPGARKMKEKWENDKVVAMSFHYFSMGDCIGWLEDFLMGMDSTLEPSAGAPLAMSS
# ULBP3-Fc = molecular target: T5, ULBP3-Fc (UniProt Q9BZM4 30-217); assay: as above
# T5 construct: Bought reagent; also called Ligand-Fc fusion (R&D Systems); not shown: Fc of the bought fusion, not described
# T5 sequence (looked up): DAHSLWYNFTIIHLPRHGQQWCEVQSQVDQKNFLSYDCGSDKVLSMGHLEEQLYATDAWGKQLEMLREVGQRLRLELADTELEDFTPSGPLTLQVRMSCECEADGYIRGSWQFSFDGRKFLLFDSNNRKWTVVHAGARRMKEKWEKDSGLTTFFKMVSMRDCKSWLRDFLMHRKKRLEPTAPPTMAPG
# ULBP4-Fc = molecular target: T6, ULBP4-Fc (UniProt Q8TD07 31-225, limits assumed); assay: as above
# T6 construct: Bought reagent; also called Ligand-Fc fusion (R&D Systems); not shown: Fc of the bought fusion, not described
# T6 sequence (looked up): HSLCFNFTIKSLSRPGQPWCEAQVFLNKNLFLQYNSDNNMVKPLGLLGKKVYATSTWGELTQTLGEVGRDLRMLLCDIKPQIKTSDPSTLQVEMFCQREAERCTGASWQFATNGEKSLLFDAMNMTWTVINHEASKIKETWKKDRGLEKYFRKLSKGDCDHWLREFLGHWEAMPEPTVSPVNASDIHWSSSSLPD
# Fc-iNKG2D.YA [1] = molecular target: B1; assay: Octet BLI, Fc-iNKG2D.YA on AHC tips, His-tagged monomer (FIG. 4C)
# Fc-wtNKG2D [2] = molecular target: T7, Fc-wtNKG2D (human, UniProt P26718 78-216); assay: Octet BLI; Fc-wtNKG2D captured on AHC tips, dilution series of His-tagged monomeric ligand
# T7 construct: range 78-216; NKG2D ectodomain fused to the C-terminus of human IgG1 Fc; dimeric secreted protein; biotinylated in some ELISAs; also called wild-type NKG2D; Fc-NKG2D
# T7 sequence: B1 chain with A79Y
# Fc-iNKG2D.YA [3] = molecular target: B1; assay: Octet BLI; Fc-iNKG2D.YA captured on AHC tips, dilution series of His-tagged monomeric ligand
# Fc-wtNKG2D [4] = molecular target: T7, Fc-wtNKG2D; assay: Octet BLI; Fc-wtNKG2D captured on AHC tips, two-fold dilution series from 50 nM
# Protocol: (§1) YA were captured with anti-human IgG Fc capture (AHC) biosensor tips then associated with a two-fold dilution series of MicAbody starting at 50 nM. The y-axes corresponding to binding responses were set to the same scale for all sensograms.
# Fc-iNKG2D.YA [5] = molecular target: B1; assay: Octet BLI; Fc-iNKG2D.YA captured on AHC tips, two-fold dilution series from 50 nM
# Protocol: as §1
# Fc-iNKG2D.YA [6] = molecular target: B1; assay: ELISA; wells coated with Fc-iNKG2D.YA, Rituximab.LC-U2S3 titrated
# Fc-iNKG2D.YA [7] = molecular target: B1; assay: ELISA; 'iNKG2D.YA capture; CD20(Rit)-MicAb titration; anti-kappa-HRP detection'
# mouse NKG2D = molecular target: T8, mouse NKG2D (mouse, UniProt O54709 94-232, limits assumed); assay: ELISA on mouse NKG2D, MicAbody titrated; y axis 'Mouse NKG2D binding' (absorbance)
# T8 construct: also called mouse wild-type NKG2D
# T8 sequence (looked up): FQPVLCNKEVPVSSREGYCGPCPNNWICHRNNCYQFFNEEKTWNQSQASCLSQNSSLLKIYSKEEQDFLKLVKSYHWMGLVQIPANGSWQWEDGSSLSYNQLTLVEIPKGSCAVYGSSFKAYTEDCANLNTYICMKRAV
# Fc-iNKG2D.YA [8] = molecular target: B1; assay: Octet BLI; Fc-iNKG2D.YA captured on AHC tips, two-fold dilution series of MicAbody from 50 nM
# Protocol: as §1
# Fc-wtNKG2D [9] = molecular target: T7, Fc-wtNKG2D; assay: ELISA on wild-type NKG2D (FIG. 19); ELISA on wild-type NKG2D (FIG. 19), Rituximab light-chain fusion
# T1 sequence (Q29983 24-308 limits assumed): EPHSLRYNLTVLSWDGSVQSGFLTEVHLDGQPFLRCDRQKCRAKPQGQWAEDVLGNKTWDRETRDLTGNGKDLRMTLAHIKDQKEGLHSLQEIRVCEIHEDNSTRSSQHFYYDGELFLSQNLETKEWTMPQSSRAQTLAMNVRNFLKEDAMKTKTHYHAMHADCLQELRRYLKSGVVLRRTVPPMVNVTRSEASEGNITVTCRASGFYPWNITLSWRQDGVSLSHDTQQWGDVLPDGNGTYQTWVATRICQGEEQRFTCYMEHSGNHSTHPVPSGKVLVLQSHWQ
binder,measurement,setting,value
B1,binding result,MICA-Fc,no binding (tested: about 2000 nM)
same,binding result,MICB-Fc,no binding (tested: about 2000 nM)
same,binding result,ULBP1-Fc,no binding (tested: about 2000 nM)
same,binding result,ULBP2-Fc,no binding (tested: about 2000 nM)
same,binding result,ULBP3-Fc,no binding (tested: about 2000 nM)
same,binding result,ULBP4-Fc,no binding (tested: about 2000 nM)
B2,fold higher affinity than wild-type ULBP2 to wtNKG2D,Fc-iNKG2D.YA [1],10 fold
same,binding result,Fc-wtNKG2D [2],no binding (tested: not printed on the sheet)
same,Kd,Fc-iNKG2D.YA [3],28000 pM
B3,binding result,Fc-wtNKG2D [4],no binding (tested: 50 nM)
same,binding result,Fc-iNKG2D.YA [5],no binding (tested: 50 nM)
B4,EC50 (read off the curve),Fc-iNKG2D.YA [6],~30 pM
same,EC50 (read off the curve),Fc-iNKG2D.YA [7],~60 pM
same,EC50 (read off the curve),mouse NKG2D,~40000 pM
same,Kd,Fc-iNKG2D.YA [8],10 pM
B5,EC50 (read off the curve),Fc-iNKG2D.YA [7],~40 pM
same,binding result,Fc-wtNKG2D [9],no binding

# — US20240277845A1 (XYPHOS BIOSCIENCES, published 2024)
